Source: patent publication US20240343803A1 (SHANDONG SIMCERE BIOPHARMACEUTICAL, published 2024)

T1: human PVRIG-mFc protein (Acro, PVG-H5253) (human, UniProt Q6DKI7 41-171, limits assumed)
T1 construct: extracellular domain; Bought protein; also called PVRIG-ECD-mFc; not shown: mouse Fc tag of the bought protein
T1 sequence (looked up): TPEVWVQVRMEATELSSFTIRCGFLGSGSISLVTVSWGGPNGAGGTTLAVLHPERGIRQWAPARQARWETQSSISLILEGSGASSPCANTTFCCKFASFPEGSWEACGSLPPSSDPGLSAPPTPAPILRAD


Molecular target: T1, human PVRIG-mFc protein (Acro, …)
Test: FACS blocking of PVRIG-mFc binding to CHO-K1-CD112 cells; competitor CD112
Summary of the method: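 After a further 30 min at 4° C with Zombie violet-stained CHO-K1-CD112 cells, binding was detected with PE goat anti-mouse IgG Fc (1:250) as mean fluorescence intensity on a BD Canto II. IC50 and curve AUC, taken from four-parameter logistic fits in GraphPad Prism, were expressed relative to a reference antibody as percentages.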

Row | % IC50 to COM701-hIgG4 [%] | % IC50 to SO35-hIgG1 [%] | % IC50 to parental Ab [%] | % AUC to COM701-hIgG4 [%] | % AUC to SO35-hIgG1 [%] | % AUC to parental Ab [%] | Binder
1 | 109 | 92.3 | 104 | – | – | – | PVRIG-A105-H2 (Fc fusion, VHH-human IgG1 Fc format is stated for the parental VHH antibodies; not restated for the humanized variants; also called A105 VH2; not shown: human IgG1 hinge-CH2-CH3 (Fc)) EVQLVESGGGLVQPGGSLRLSCAASGRTFDRHTMTWFRQAPGKEREFVATASRIPGDTYYVDSVKGRFTISRDNAKNSLYLQMNSLRAEDTAVYYCAATSAYCSEVDCYEKGSWYDNWGQGTMVTVSS
2 | 101 | 78 | 86.1 | 115 | 67.8 | 94 | PVRIG-A50-H1 (Fc fusion, VHH-human IgG1 Fc format is stated for the parental VHH antibodies; not restated for the humanized variants; also called A50.VH1; not shown: human IgG1 hinge-CH2-CH3 (Fc)) EVQLVESGGGLVQPGGSLRLSCAASGFTFSYYDMSWVRQAPGKGLEWVSTINSNGGRTSYVDSVKGRFTISRDNSKNTLYLQMNSLRAEDTAVYYCVEGDPHNFGLENLSLRDFGSWGQGTMVTVSS
3 | 130 | 101 | 111 | 126 | 74.1 | 103 | PVRIG-A50-H1e (Fc fusion, VHH-human IgG1 Fc format is stated for the parental VHH antibodies; not restated for the humanized variants; also called VH1e; not shown: human IgG1 hinge-CH2-CH3 (Fc)) EVQLVESGGGLVQPGGSLRLSCAASGFTFSYYDMSWVRQAPGKGLEWVSTINSNAGRTSYVDSVKGRFTISRDNSKNTLYLQMNSLRAEDTAVYYCVEGDPHNFGLESLSLRDFGSWGQGTMVTVSS
4 | 115 | 89.1 | 98.4 | 121 | 71.1 | 98.7 | PVRIG-A50-H1d (Fc fusion, VHH-human IgG1 Fc format is stated for the parental VHH antibodies; not restated for the humanized variants; also called A50.VH1d; not shown: human IgG1 hinge-CH2-CH3 (Fc)) EVQLVESGGGLVQPGGSLRLSCAASGFTFSYYDMSWVRQAPGKGLEWVSTINSNGGRTSYVDSVKGRFTISRDNSKNTLYLQMNSLRAEDTAVYYCVEGDPHNFGLESLSLRDFGSWGQGTMVTVSS
5 | 118 | 91.7 | 101 | 112 | 66 | 91.6 | PVRIG-A50-H2a (Fc fusion, VHH-human IgG1 Fc format is stated for the parental VHH antibodies; not restated for the humanized variants; also called A50.VH2a; not shown: human IgG1 hinge-CH2-CH3 (Fc)) EVQLVESGGGLVQPGGSLRLSCAASGFTFSYYDMSWVRQAPGKGLEWVSTINSNAGRTSYVDSVKGRFTISRDNTKNTLYLQMNSLRAEDTAVYYCVEGDPHNFGLESLSLRDFGSWGQGTMVTVSS
6 | 117 | 90.6 | 100 | 122 | 72.1 | 100 | PVRIG-A50 (Fc fusion, Alpaca VHH expressed as VHH-hinge-CH2-CH3 of human IgG1 (heavy-chain antibody); also called PVRIG-50; not shown: human IgG1 hinge-CH2-CH3 (Fc)) EVQLVESGGGLVQPGGSLRLSCAASGFTFSYYDMSWVRQAPGKGLEWVSTINSNGGRTSYVDSVKGRFTISRDNTKNTLYLQMNSLKPEDTAVYYCVEGDPHNFGLENLSLRDFGSWGQGTQVTVSS
7 | 120 | 93 | 103 | 125 | 73.5 | 102 | PVRIG-A50-H1a (Fc fusion, VHH-human IgG1 Fc format is stated for the parental VHH antibodies; not restated for the humanized variants; also called A50.VH1a; not shown: human IgG1 hinge-CH2-CH3 (Fc)) EVQLVESGGGLVQPGGSLRLSCAASGFTFSYYDMSWVRQAPGKGLEWVSTINSDGGRTSYVDSVKGRFTISRDNSKNTLYLQMNSLRAEDTAVYYCVEGDPHNFGLENLSLRDFGSWGQGTMVTVSS
8 | 122 | 94.7 | 105 | 132 | 77.7 | 108 | PVRIG-A50-H1c (Fc fusion, VHH-human IgG1 Fc format is stated for the parental VHH antibodies; not restated for the humanized variants; also called A50.VH1c; not shown: human IgG1 hinge-CH2-CH3 (Fc)) EVQLVESGGGLVQPGGSLRLSCAASGFTFSYYDMSWVRQAPGKGLEWVSTINSDGGRTSYVDSVKGRFTISRDNSKNTLYLQMNSLRAEDTAVYYCVEGDPHNFGLENLALRDFGSWGQGTMVTVSS
9 | 146 | 98.8 | 104 | 127 | 65.8 | 107 | PVRIG-A118-H3 (Fc fusion, VHH-human IgG1 Fc format is stated for the parental VHH antibodies; not restated for the humanized variants; also called A118.VH3; not shown: human IgG1 hinge-CH2-CH3 (Fc)) EVQLVESGGGLVQPGGSLRLSCAASETYFDLYVMGWYRQAPGKDRELVATITYTGSIKYVDSVKGRFTISRGDAKNSLYLQMNSLRAEDTAVYYCNADPSGLGRKVYWGQGTMVTVSS
10 | 144 | 97.4 | 102 | 127 | 66.1 | 107 | PVRIG-A118-H5 (Fc fusion, VHH-human IgG1 Fc format is stated for the parental VHH antibodies; not restated for the humanized variants; also called A118.VH5; not shown: human IgG1 hinge-CH2-CH3 (Fc)) EVQLVESGGGLVQPGGSLRLSCAASETYFDLYVMGWYRQAPGKDRELVATITYTGSIKYVDSVKGRFTISRGDAKNSVYLQMNSLRAEDTAVYYCNADPSGLGRKVYWGQGTMVTVSS
11 | 143 | 97.1 | 102 | 124 | 64.3 | 104 | PVRIG-A118-H7 (Fc fusion, VHH-human IgG1 Fc format is stated for the parental VHH antibodies; not restated for the humanized variants; also called A118.VH7; not shown: human IgG1 hinge-CH2-CH3 (Fc)) EVQLVESGGGLVQPGGSLRLSCAASETYFDLYVMGWYRQAPGKDRELVATITYTGSIKYVDSVKGRFTISRGDAKNSLYLQMNSLRAEDTAVYFCNADPSGLGRKVYWGQGTMVTVSS
12 | 141 | 95.4 | 100 | 116 | 60.4 | 97.9 | PVRIG-A118-H4 (Fc fusion, VHH-human IgG1 Fc format is stated for the parental VHH antibodies; not restated for the humanized variants; also called A118.VH4; not shown: human IgG1 hinge-CH2-CH3 (Fc)) EVQLVESGGGLVQPGGSLRLSCAASETYFDLYVMGWYRQAPGKDRELVATITYTGSIKYVDSVKGRFTISRGDAKNSLSLQMNSLRAEDTAVYYCNADPSGLGRKVYWGQGTMVTVSS
13 | 145 | 97.8 | 103 | 119 | 61.7 | 100 | PVRIG-A118-H6 (Fc fusion, VHH-human IgG1 Fc format is stated for the parental VHH antibodies; not restated for the humanized variants; also called A118.VH6; not shown: human IgG1 hinge-CH2-CH3 (Fc)) EVQLVESGGGLVQPGGSLRLSCAASETYFDLYVMGWYRQAPGKDRELVATITYTGSIKIVDSVKGRFTISRGDAKNSLYLQMNSLRAEDTAVYYCNADPSGLGRKVYWGQGTMVTVSS
14 | 161 | 109 | 115 | 142 | 73.7 | 120 | PVRIG-A118-H2 (Fc fusion, VHH-human IgG1 Fc format is stated for the parental VHH antibodies; not restated for the humanized variants; also called A118.VH2; not shown: human IgG1 hinge-CH2-CH3 (Fc)) EVQLVESGGGLVQPGGSLRLSCAASETYFDLYVMGWYRQAPGKDRELVATITYTGSIKYVDSVKGRFTISRDNAKNSLYLQMNSLRAEDTAVYYCNADPSGLGRKVYWGQGTMVTVSS
15 | 141 | 95.4 | 100 | 120 | 62.4 | 101 | PVRIG-A118-H1 (Fc fusion, VHH-human IgG1 Fc format is stated for the parental VHH antibodies; not restated for the humanized variants; also called A118.VH1; not shown: human IgG1 hinge-CH2-CH3 (Fc)) EVQLVESGGGLVQPGGSLRLSCAASETYFDLYVMGWYRQAPGKDRELVATITYTGSIYYVDSVKGRFTISRDNAKNSLYLQMNSLRAEDTAVYYCNADPSGLGRKVYWGQGTMVTVSS
16 | 141 | 95.3 | 100 | 119 | 61.7 | 100 | PVRIG-A118 (Fc fusion, Alpaca VHH expressed as VHH-hinge-CH2-CH3 of human IgG1; not shown: human IgG1 hinge-CH2-CH3 (Fc)) QVQLVESGGGLVQAGGSLRLSCAASETYFDLYVMGWYRQAPGKDRELVATITYTGSIKIVDSVKDRFTISRGDAKNTVSLQMSSLKPEDTAVYFCNADPSGLGRKVYWGQGTQVTVSS
